Assay results as given in publication PMC4008574 (PLoS ONE, 2014).
Ends that are not written are not given here.

T1: chemokine domain of fractalkine (FKN-CD), wild type (UniProt P78423 25-100)
T1 construct: fractalkine (CX3CL1), N-terminal chemokine domain, printed as residues 1-76; The limits 1-76 are printed for the chemokine domain in general (introduction); also called WT FKN-CD; CX3CL1
T1 sequence (looked up): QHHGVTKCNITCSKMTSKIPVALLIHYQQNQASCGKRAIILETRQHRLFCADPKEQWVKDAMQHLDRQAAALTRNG


Key:
[1] = target: Integrin αvβ3 (Homo sapiens) (UniProt P06756); settings: cited from earlier work
Chain of Integrin αvβ3 (Homo sapiens) (P06756 31-992, chain 1 of 2): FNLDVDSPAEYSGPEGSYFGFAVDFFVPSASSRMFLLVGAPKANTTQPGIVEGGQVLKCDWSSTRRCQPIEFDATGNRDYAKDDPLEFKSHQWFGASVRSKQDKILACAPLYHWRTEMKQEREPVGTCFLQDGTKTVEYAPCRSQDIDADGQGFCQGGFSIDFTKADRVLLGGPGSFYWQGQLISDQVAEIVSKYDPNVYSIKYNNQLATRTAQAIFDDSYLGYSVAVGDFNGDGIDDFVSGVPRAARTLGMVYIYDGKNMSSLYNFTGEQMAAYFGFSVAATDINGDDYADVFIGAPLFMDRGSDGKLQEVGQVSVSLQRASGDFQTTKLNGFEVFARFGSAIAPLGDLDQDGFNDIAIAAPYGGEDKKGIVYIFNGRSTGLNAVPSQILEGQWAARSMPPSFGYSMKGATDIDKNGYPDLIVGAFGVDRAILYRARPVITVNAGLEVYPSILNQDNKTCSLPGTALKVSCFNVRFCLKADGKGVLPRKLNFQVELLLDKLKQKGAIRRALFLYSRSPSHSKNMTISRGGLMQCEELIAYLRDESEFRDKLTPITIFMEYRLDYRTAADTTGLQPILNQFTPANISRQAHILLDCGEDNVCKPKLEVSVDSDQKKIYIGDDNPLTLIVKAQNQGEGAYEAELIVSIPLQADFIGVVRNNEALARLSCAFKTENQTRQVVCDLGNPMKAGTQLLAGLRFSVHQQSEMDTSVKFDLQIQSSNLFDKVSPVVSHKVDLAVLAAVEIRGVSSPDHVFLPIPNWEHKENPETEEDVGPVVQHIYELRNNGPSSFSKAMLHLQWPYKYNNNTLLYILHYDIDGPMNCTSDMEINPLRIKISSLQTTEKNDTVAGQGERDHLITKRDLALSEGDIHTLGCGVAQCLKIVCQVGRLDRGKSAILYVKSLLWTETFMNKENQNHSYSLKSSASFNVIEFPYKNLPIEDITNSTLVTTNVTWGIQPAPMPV
Chain of Integrin αvβ3 (Homo sapiens) (P05106 27-718, chain 2 of 2, further chain): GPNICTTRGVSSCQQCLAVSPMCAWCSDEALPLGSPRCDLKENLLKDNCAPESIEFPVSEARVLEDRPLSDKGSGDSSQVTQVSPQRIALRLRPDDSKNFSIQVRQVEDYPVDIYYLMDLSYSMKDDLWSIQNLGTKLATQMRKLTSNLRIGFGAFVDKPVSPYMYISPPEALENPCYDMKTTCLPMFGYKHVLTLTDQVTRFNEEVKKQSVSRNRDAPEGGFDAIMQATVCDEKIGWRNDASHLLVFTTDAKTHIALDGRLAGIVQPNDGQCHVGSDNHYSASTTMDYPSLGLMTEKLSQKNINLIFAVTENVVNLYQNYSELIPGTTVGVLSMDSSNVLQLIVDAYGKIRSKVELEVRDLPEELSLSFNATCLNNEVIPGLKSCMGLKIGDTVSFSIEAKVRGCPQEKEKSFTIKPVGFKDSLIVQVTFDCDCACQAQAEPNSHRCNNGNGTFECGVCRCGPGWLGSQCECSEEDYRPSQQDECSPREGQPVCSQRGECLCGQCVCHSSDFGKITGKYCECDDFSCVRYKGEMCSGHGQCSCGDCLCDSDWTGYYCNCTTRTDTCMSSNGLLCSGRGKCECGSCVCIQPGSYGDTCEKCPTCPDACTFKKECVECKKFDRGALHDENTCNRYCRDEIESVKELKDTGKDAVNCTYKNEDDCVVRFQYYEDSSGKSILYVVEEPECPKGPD

[2] = target: T1, chemokine domain of fractalkine …; assay: ELISA; FKN-CD, γC399tr, FN-H120 or FN8-11 coated on wells (5 µM in Figure 4d; GST removed from FN-H120 and FN8-11); GST-tagged S2 peptides added in PBS, 2 h at room temperature; detected with HRP-conjugated anti-GST antibody; settings: both partners purified

Chain of Fractalkine chemokine domain (P78423 22-103): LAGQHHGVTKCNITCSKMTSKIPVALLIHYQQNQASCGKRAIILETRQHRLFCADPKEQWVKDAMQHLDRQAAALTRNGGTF

binding result [2]	Molecule	Kd [1]
	Fractalkine chemokine domain (from UniProt P78423)	0.3 nM
binds	QPNDGQSHVGSDNHYSASTTM (also: GST fusion protein, The 6His tag was put into the BamHI site of pGEX-2T and the peptide's oligonucleotides into the BamHI/EcoRI site of the resulting vector; also called S2 peptide) [GST fusion protein of site 2 peptide of integrin β3 (S2-β3 peptide)]	
